Data on 46 substances can be found in the Human Domainome abundance scans (Beltran et al. 2025).

± gives the uncertainty stated by the source.

The nature of this data set: abundance fitness (aPCA) (normalised: wild type 0, dead -1); higher = more abundant; growth selection in yeast, the domain comes from the species named. The following applies: Homo sapiens.
For “Lipoamide acyltransferase component of branched-chain alpha-keto acid dehydrogenase complex, mitochondrial D197S, P11182”, the abundance fitness was -0.205 ± 0.041.

“Lipoamide acyltransferase component of branched-chain alpha-keto acid dehydrogenase complex, mitochondrial D197T, P11182” had an abundance fitness of -0.45 ± 0.06.

For the substance “Lipoamide acyltransferase component of branched-chain alpha-keto acid dehydrogenase complex, mitochondrial D197V, P11182”, the abundance fitness was -0.728 ± 0.061. The value for “Lipoamide acyltransferase component of branched-chain alpha-keto acid dehydrogenase complex, mitochondrial D197W, P11182” was -0.387 ± 0.064; that for “Lipoamide acyltransferase component of branched-chain alpha-keto acid dehydrogenase complex, mitochondrial D204A, P11182” was -1.24 ± 0.064; that for “Lipoamide acyltransferase component of branched-chain alpha-keto acid dehydrogenase complex, mitochondrial D204C, P11182” was -1.27 ± 0.098. Consider “Lipoamide acyltransferase component of branched-chain alpha-keto acid dehydrogenase complex, mitochondrial D204E, P11182”, for which the abundance fitness was -0.771 ± 0.1. The value for “Lipoamide acyltransferase component of branched-chain alpha-keto acid dehydrogenase complex, mitochondrial D204G, P11182” was -0.806 ± 0.042; that for “Lipoamide acyltransferase component of branched-chain alpha-keto acid dehydrogenase complex, mitochondrial D204H, P11182” was -0.946 ± 0.16.

The substance “Lipoamide acyltransferase component of branched-chain alpha-keto acid dehydrogenase complex, mitochondrial D204L, P11182” displayed an abundance fitness of -1.26 ± 0.1. Substance “Lipoamide acyltransferase component of branched-chain alpha-keto acid dehydrogenase complex, mitochondrial D204M, P11182” showed an abundance fitness of -1.35 ± 0.11. For “Lipoamide acyltransferase component of branched-chain alpha-keto acid dehydrogenase complex, mitochondrial D204N, P11182”, the abundance fitness was -0.136 ± 0.4. On to “Lipoamide acyltransferase component of branched-chain alpha-keto acid dehydrogenase complex, mitochondrial D204P, P11182”, for which the abundance fitness is -0.455 ± 0.06. Under “Lipoamide acyltransferase component of branched-chain alpha-keto acid dehydrogenase complex, mitochondrial D204Q, P11182” stands -0.932 ± 0.062; under “Lipoamide acyltransferase component of branched-chain alpha-keto acid dehydrogenase complex, mitochondrial D204R, P11182”, -1.07 ± 0.047. For the substance “Lipoamide acyltransferase component of branched-chain alpha-keto acid dehydrogenase complex, mitochondrial D204S, P11182”, the abundance fitness was -0.83 ± 0.068. In turn, “Lipoamide acyltransferase component of branched-chain alpha-keto acid dehydrogenase complex, mitochondrial D204T, P11182” came in with an abundance fitness of -0.973 ± 0.064.

“Lipoamide acyltransferase component of branched-chain alpha-keto acid dehydrogenase complex, mitochondrial D204V, P11182” returned an abundance fitness of -1.1 ± 0.072.

For the substance “Lipoamide acyltransferase component of branched-chain alpha-keto acid dehydrogenase complex, mitochondrial E190A, P11182”, the abundance fitness is -0.093 ± 0.047. In turn, “Lipoamide acyltransferase component of branched-chain alpha-keto acid dehydrogenase complex, mitochondrial E190C, P11182” registered an abundance fitness of -0.315 ± 0.12. Take “Lipoamide acyltransferase component of branched-chain alpha-keto acid dehydrogenase complex, mitochondrial E190D, P11182”: the abundance fitness stood at 0.039 ± 0.064. Under “Lipoamide acyltransferase component of branched-chain alpha-keto acid dehydrogenase complex, mitochondrial E190F, P11182” stands -0.448 ± 0.076; under “Lipoamide acyltransferase component of branched-chain alpha-keto acid dehydrogenase complex, mitochondrial E190G, P11182”, -0.409 ± 0.038; under “Lipoamide acyltransferase component of branched-chain alpha-keto acid dehydrogenase complex, mitochondrial E190H, P11182”, -0.086 ± 0.072.

Consider “Lipoamide acyltransferase component of branched-chain alpha-keto acid dehydrogenase complex, mitochondrial E190I, P11182”, for which the abundance fitness is -0.609 ± 0.08. Substance “Lipoamide acyltransferase component of branched-chain alpha-keto acid dehydrogenase complex, mitochondrial E190K, P11182” gave an abundance fitness of -0.178 ± 0.056.

In turn, “Lipoamide acyltransferase component of branched-chain alpha-keto acid dehydrogenase complex, mitochondrial E190L, P11182” came in with an abundance fitness of -0.186 ± 0.042. Under “Lipoamide acyltransferase component of branched-chain alpha-keto acid dehydrogenase complex, mitochondrial E190M, P11182” stands -0.147 ± 0.049; under “Lipoamide acyltransferase component of branched-chain alpha-keto acid dehydrogenase complex, mitochondrial E190N, P11182”, -0.032 ± 0.047. The value for “Lipoamide acyltransferase component of branched-chain alpha-keto acid dehydrogenase complex, mitochondrial E190P, P11182” was -0.963 ± 0.081; that for “Lipoamide acyltransferase component of branched-chain alpha-keto acid dehydrogenase complex, mitochondrial E190Q, P11182” was -0.069 ± 0.059. Take “Lipoamide acyltransferase component of branched-chain alpha-keto acid dehydrogenase complex, mitochondrial E190R, P11182”: the abundance fitness was -0.199 ± 0.04. As for “Lipoamide acyltransferase component of branched-chain alpha-keto acid dehydrogenase complex, mitochondrial E190S, P11182”, the abundance fitness is -0.079 ± 0.046. Regarding “Lipoamide acyltransferase component of branched-chain alpha-keto acid dehydrogenase complex, mitochondrial E190T, P11182”, the abundance fitness was -0.119 ± 0.047. Under “Lipoamide acyltransferase component of branched-chain alpha-keto acid dehydrogenase complex, mitochondrial E190W, P11182” stands -0.192 ± 0.046; under “Lipoamide acyltransferase component of branched-chain alpha-keto acid dehydrogenase complex, mitochondrial E190Y, P11182”, -0.349 ± 0.05. For the substance “Lipoamide acyltransferase component of branched-chain alpha-keto acid dehydrogenase complex, mitochondrial E203A, P11182”, the abundance fitness is -0.041 ± 0.042. The value for “Lipoamide acyltransferase component of branched-chain alpha-keto acid dehydrogenase complex, mitochondrial E203C, P11182” was -0.053 ± 0.075. In turn, “Lipoamide acyltransferase component of branched-chain alpha-keto acid dehydrogenase complex, mitochondrial E203D, P11182” came in with an abundance fitness of -0.089 ± 0.059. Under “Lipoamide acyltransferase component of branched-chain alpha-keto acid dehydrogenase complex, mitochondrial E203F, P11182” stands -0.409 ± 0.14. The value for “Lipoamide acyltransferase component of branched-chain alpha-keto acid dehydrogenase complex, mitochondrial E203G, P11182” was -0.089 ± 0.04; that for “Lipoamide acyltransferase component of branched-chain alpha-keto acid dehydrogenase complex, mitochondrial E203H, P11182” was -0.124 ± 0.059; that for “Lipoamide acyltransferase component of branched-chain alpha-keto acid dehydrogenase complex, mitochondrial E203K, P11182” was -0.027 ± 0.055. Under “Lipoamide acyltransferase component of branched-chain alpha-keto acid dehydrogenase complex, mitochondrial E203L, P11182” stands -0.176 ± 0.049.

Turning to “Lipoamide acyltransferase component of branched-chain alpha-keto acid dehydrogenase complex, mitochondrial E203M, P11182”, the abundance fitness was -0.127 ± 0.06.

As to “Lipoamide acyltransferase component of branched-chain alpha-keto acid dehydrogenase complex, mitochondrial E203P, P11182”, the abundance fitness was -0.173 ± 0.059.
